Results reported in the RNAGym collection of RNA variant scans (doi:10.1073/pnas.2313332121).

B1: TPR t1 (parent)
chain: GACCAAUCUGCCCUCAGAGCUCGAGAACAUCUUCGGAUGCAGAGGAGGCAGGCUUCGGUGGCGCGAUAGCGCCAACGUCCUCAACCUCCAAUGCAUCCCACCACAUGAUGAUGCCUGAAGAGCCUUGGUUUUUUG

Variants of: B1
Test: polymerase ribozyme fitness, log enrichment relative to wild type (log ratio); higher = more active; in vitro selection for triplet polymerase activity
In short: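 Each subunit of a heterodimeric triplet polymerase ribozyme was represented by a PCR-built, transcribed mutant library that underwent triplicate single-round in vitro selection with frozen incubation at −7 °C. Extended constructs were recovered by gel excision, streptavidin-bead capture and RT-PCR, and Illumina sequencing of input and output libraries kept genotypes with ≥10 input reads and ≥1 read per output. Fitness is the logarithm of genotype enrichment relative to wild-type enrichment, from inverse-variance-weighted replicate averages, with a logarithm base of 2.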

Variant	polymerase ribozyme fitness (log ratio)
C8U G44A G69C C89U A118U C124G G127C	0.163
C8U A50U G69U	-0.24
C8U C70U G110A	-1.5
C8U C53A G117A U130G	-0.499
C8U G44A C101U U116C	-1.58
U9A C114U G120A C123U	-2.11
U9A C124U	1.21
C8U C12G G42U A74U C88A	-1.72
C8U U9G C12A G58A	0.43
U9A C31G	-4.11
C8U U54A	0.528
C8U C22G G57C C89A A95G A111U A121U	-3.38
U9A C13U G25A A29G C53A C114G	-6.86
C8U C13U G19A C40U C53U U54G A74G U131A	-5.02
C8U C13G A26C A74C	-6.04
U9A A27G C72U C114U	-1.39
C8U A68G A111C	-3.15
C8U A91U U130A	-1.26
C8U C11U G93U	-1.31
C8U C56G C64U C80A	-3.18
U9A A16G A18U A43G C70A C72U	-3.21
C8U C49G U106A G110A	-1.48
C8U G39A	0.0776
C8U G39U	0.386

Variant	polymerase ribozyme fitness (log ratio)
U9A C40G G113A	-0.901
U9A A37U U81G	-2.86
U9A C13A A16U C34G G48C G69U C80U	-4.42
C8U C53A	0.141
C8U G47U A90G G113C	-2.16
U9A C62U	0.575
C8U C12U G57C A90U	-0.755
U9A C40A G61U G93C C94G C124U	-0.833
C8U G44C G63A	-0.547
C8U U21A C56U C114A G128A	-2.5
C8U U21A A50C C53G G60A C88U U125C	-5.83
U9A C12A C13A A18G A100U	-6.25
U9A A118G	0.108
U9A A24U G71A G107A U125G	-7.09
C8U U14A	-0.398
U9A C62G C94U	-0.686
C8U C49U G61A	0.346
C8U C72A C76A	-1.75
U9A C12U G61C	-1.89
C8U C34A G44U G61A U130G	-4.33
U9A C53A U87G	0.985
U9A C31U G44U G52U G61U A111U	-6.18
C8U G128A	-1.25
C8U C72U U78C U81A A83G	-0.492

Variant	polymerase ribozyme fitness (log ratio)
C8U G71C U87A	-2.97
C8U C13U A46C U59A G71U C79G A83G U109G U132A	-7.26
U9A G39U G48A U109A	-6.15
C8U C13A C20A U59A G113A C123G	-1.9
U9A C11U C76U A84C	-0.377
C8U A105C	-2.01
U9A C20G C72U U96G C124U	-3.12
C8U G47A U59A A74U C124A	0.355
C8U G19A A46U C73A G110U	-5.19
U9A A43U A50C	-1.66
U9A G36U G63U	-1.27
U9A C31G G60A C89G A111C G127A	-7
C8U C64U C72A U109A	-4.83
U9A C49U	-0.088
C8U G39U C49G G63C U78A G128A	-4.09
C8U U109A	-5.29
C8U C28U C56A U87G A119G U130C	-1.12
C8U A50U G117C	-3.99
C8U U78C	0.388
C8U U78A	0.175
U9A C12U	-0.242
U9A C72U	0.716
C8U U78C U109A	-5.42
C8U G23A U54C C73A	-6.59

Variant	polymerase ribozyme fitness (log ratio)
C8U G44U	-1.28
U9A C114U	-0.999
C8U G19C G44U C56A C89G	-2.64
U9A A46U G77C G122A	-0.702
C8U A118G	-0.114
C8U C34A G35U G63U C82U G120A U130A	-4.37
C8U G10C C13A C49G C53A C101A U133A	-3
C8U U9C C12U G17A G19A G44U C114G	-5.67
C8U G71A C98U G117U U130C	-4.47
C8U C72U	0.252
C8U A43U G58A C79U G113C A118G	-3.06
C8U C15U G57U C82U U112A A118G	0.233
C8U G63U A90U G113C	-3.6
C8U C12A C40A G61U A66G	-1.69
C8U C11G C70U G93A	0.0777
C8U G10U A27U U59C	-3.06
U9A A46U U59C U78A C89G U109A	-7.76
C8U G39C U96C C101U U116A	-3.66
C8U G36U G60C	-1.66
C8U U81A A84G	-0.331
U9A A26C C40U U87C U125G	-5.19
U9A C13G G61U C123G	1.99
C8U C56G	-0.121
U9A C70U C88A C101U U132A	-0.202

Variant	polymerase ribozyme fitness (log ratio)
C8U C98U	-1.28
U9A G39U G45U	-0.618
U9A C88U U92A	-2.44
U9A G44U	-0.143
C8U G23A	-4.81
C8U C101A U112A	1.32
C8U G77A A84C A91C C98U	-2.47
C8U C70G A111U	-6.19
U9A G36A A119G	0.68
C8U C13U C22G U59A U81C U109A	-5.73
C8U C40G G42U C49A U130A	-2.72
U9A G42C C62A C101U	-3.42
C8U C11G C13U C20A G69C C82A A83C C98U U112G	-4.19
C8U G93A	0.108
U9A G47U C79A A83C	-3.93
U9A C13A	0.483
U9A C13U	0.446
U9A A27C G117C	-5.71
U9A G25A	-5.66
U9A G36U	0.766
C8U G47U G69A U131G	-5.7
C8U G93A C94U A118U	-0.514
C8U C88G	-0.442
C8U C53A C99U C101G	-3.52

Variant	polymerase ribozyme fitness (log ratio)
C8U C73U	1.07
C8U U9G G60A	-0.0864
C8U C62G	-0.903
C8U C13U G39A C80U C102A	-2.98
C8U C124G	2.32
C8U C22G C104G G117A U125G	-4.71
U9A C12U A37G	-0.0422
C8U C11A C124U	1.17
C8U C40U A43U G77C	-1.32
C8U C11U	-0.675
C8U C28G C70A U131A	-4.27
C8U C13G A29U G122A	-2.49
C8U G63U A90G C115A	-0.076
U9A A46U A74C C88G	-2.48
C8U C15U G45C A50U	-1.64
C8U C62U C86U C101A	-1.69
C8U A121G	1.42
C8U A46U G61A C101A G113U	-2.36
U9A C20G C64A U112A G128A	-5.8
C8U G48U A50U C86U U96A	-0.998
C8U G60C U129C	-0.854
U9A C62G C79G C115U	-4.57
U9A C12U G120U G128C	0.498
C8U C22A G63U U81C A105G	-7.76

Variant	polymerase ribozyme fitness (log ratio)
C8U C20G	-3.53
C8U C20A	-1.98
U9A C22A C89A G113U A118U G135U	-5.73
U9A G17U C62A C88U A91G U132A	-4.47
U9A A27G C114U	-1.28
C8U G45A G52C C72A C123G	1.37
C8U G36C G63U	-1.95
U9A C62A C88U U92A	-4.26
C8U G48A G57C G60U C82A G127A	-1.38
C8U U14C A75U G120A	1.44
C8U C70A C73A C97U	-3.27
U9A A16G C28U U54G C89G C123G U131G	-3.93
C8U G10A A95C U130G	-1.3
C8U G63U C102G C114A U125A	-6.46
C8U G58C U59A G60A	-0.843
U9A	0.517
C8U C56U C70U C73A	-2.03
U9A C15A C56G C70U C76U G120C G122U U129C	-6.98
U9A G19C A27G U106C	-4.96
C8U G39A C94G C99U	-4.71
C8U U21G	-0.546
U9A C13A C22G G48C G71A	-5.83
U9A A46G C53G C72U C82A G113U	-1.9
